Experimental data: the supplement of paper PMC10126150
± gives the standard deviation of the averaged measurements.

Test system: ATP
Assay: switch fluorescence ratio, 500 uM ATP over buffer (Cy3 cluster intensity, sum of 5 cycles each) (fold (ratio)); higher = stronger signal-on switching upon ATP binding; sequences stand for … in TCGTCGGCAGCGTCAGATGTGTATAAGAGACAGTTTTTTTTTTTTTTTTTTTTTTTTT…TC
Details: aptamer strand: ATP DNA aptamer (quencher-CACCTGGGGGAGTATTGCGGAGGAAGG + anchor), 100 nM annealed; ATP concentration: 500 uM
In short: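 Values give the fluorescence ratio for each switch-domain sequence, averaged from per-cluster ratios of summed target-cycle to summed buffer-cycle Cy3 intensity. The Cy3-labelled switching-strand clusters sat on a modified Illumina MiSeq flow-cell, were annealed to 100 nM quencher-labelled ATP aptamer, and were imaged in selection buffer, then after 15 min with 500 uM ATP at 22 °C. Five cycles ran with NaOH stripping and re-annealing between them, and clusters outside 100-1000 RFU were excluded.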
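Also: ATP exposure 15 min at 22 °C before imaging.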

Sequence: CGCTACGGAG
- switch fluorescence ratio: 1.02 ± 0.029

Sequence: CGCTATAAGG
- switch fluorescence ratio: 1.03 ± 0.017

Sequence: CGCTATGGGG
- switch fluorescence ratio: 1.02 ± 0.059

Sequence: CGCTATGTGG
- switch fluorescence ratio: 1.02 ± 0.041

Sequence: CGCTATTGTT
- switch fluorescence ratio: 1.028 ± 0.0065

Sequence: CGCTATTTTA
- switch fluorescence ratio: 1.04 ± 0.039

Sequence: CGCTCAGGAC
- switch fluorescence ratio: 1.29 ± 0.1

Sequence: CGCTCTTGTA
- switch fluorescence ratio: 0.991 ± 0.012

Sequence: CGCTGATTTG
- switch fluorescence ratio: 1.002 ± 0.0074

Sequence: CGCTGCGGTT
- switch fluorescence ratio: 1.01 ± 0.05

Sequence: CGCTGGACGG
- switch fluorescence ratio: 1.023 ± 0.0098

Sequence: CGCTGGATAG
- switch fluorescence ratio: 1.08 ± 0.051

Sequence: CGCTGGGGAT
- switch fluorescence ratio: 1.04 ± 0.027

Sequence: CGCTGGGTCA
- switch fluorescence ratio: 1.04 ± 0.13

Sequence: CGCTGGGTTT
- switch fluorescence ratio: 0.976 ± 0.035

Sequence: CGCTGTGCGG
- switch fluorescence ratio: 0.99 ± 0.052

Sequence: CGCTGTTGGT
- switch fluorescence ratio: 0.9997 ± 0.0098

Sequence: CGCTTAAGAG
- switch fluorescence ratio: 1.02 ± 0.014

Sequence: CGCTTAATTG
- switch fluorescence ratio: 1.01 ± 0.051

Sequence: CGCTTATGGA
- switch fluorescence ratio: 1.003 ± 0.0032

Sequence: CGCTTGACTT
- switch fluorescence ratio: 0.985 ± 0.028

Sequence: CGCTTGGTTT
- switch fluorescence ratio: 0.9911 ± 0.0063

Sequence: CGCTTTAATT
- switch fluorescence ratio: 0.989 ± 0.032

Sequence: CGCTTTTTTG
- switch fluorescence ratio: 1.01 ± 0.032

Sequence: CGGAAAGAAA
- switch fluorescence ratio: 1.06 ± 0.058

Sequence: CGGAAAGGGT
- switch fluorescence ratio: 1.01 ± 0.027

Sequence: CGGAAATAT
- switch fluorescence ratio: 1.023 ± 0.0046

Sequence: CGGAAATTGG
- switch fluorescence ratio: 0.982 ± 0.012

Sequence: CGGAAATTTG
- switch fluorescence ratio: 1.02 ± 0.032

Sequence: CGGAACAGTT
- switch fluorescence ratio: 1.02 ± 0.024

Sequence: CGGAAGAATT
- switch fluorescence ratio: 0.99422 ± 0.00026

Sequence: CGGAAGATAG
- switch fluorescence ratio: 1.027 ± 0.0066

Sequence: CGGAAGCTTT
- switch fluorescence ratio: 1.04 ± 0.021

Sequence: CGGAAGGGTA
- switch fluorescence ratio: 0.989 ± 0.036

Sequence: CGGAAGTATG
- switch fluorescence ratio: 1.04 ± 0.025

Sequence: CGGAAGTTCG
- switch fluorescence ratio: 0.9774 ± 0.0048

Sequence: CGGAATTTGG
- switch fluorescence ratio: 1.02 ± 0.041

Sequence: CGGACCAACG
- switch fluorescence ratio: 1.09 ± 0.019

Sequence: CGGACGGAAG
- switch fluorescence ratio: 1.01 ± 0.0078

Sequence: CGGACGGTTG
- switch fluorescence ratio: 1.01 ± 0.042

Sequence: CGGACTGGGA
- switch fluorescence ratio: 1.007 ± 0.0052

Sequence: CGGAGACTTG
- switch fluorescence ratio: 0.973 ± 0.068

Sequence: CGGAGAGGCA
- switch fluorescence ratio: 0.974 ± 0.032

Sequence: CGGAGATTAC
- switch fluorescence ratio: 2.25 ± 0.035

Sequence: CGGAGCAGGA
- switch fluorescence ratio: 1.48 ± 0.17

Sequence: CGGAGCAGGT
- switch fluorescence ratio: 2.09 ± 0.42

Sequence: CGGAGCCAGG
- switch fluorescence ratio: 1.43 ± 0.02

Sequence: CGGAGGGAGT
- switch fluorescence ratio: 1.78 ± 1.1

Sequence: CGGAGGGGTC
- switch fluorescence ratio: 1.02 ± 0.02

Sequence: CGGAGGGGTG
- switch fluorescence ratio: 1.02 ± 0.022

Sequence: CGGAGGTGTA
- switch fluorescence ratio: 1.4 ± 0.67

Sequence: CGGAGTCTGT
- switch fluorescence ratio: 1.1 ± 0.048

Sequence: CGGAGTTATG
- switch fluorescence ratio: 1.09 ± 0.04

Sequence: CGGAGTTGGG
- switch fluorescence ratio: 0.9863 ± 0.0044

Sequence: CGGATAATTT
- switch fluorescence ratio: 1.01 ± 0.047

Sequence: CGGATAGAAT
- switch fluorescence ratio: 0.984 ± 0.029

Sequence: CGGATAGAGG
- switch fluorescence ratio: 0.964 ± 0.012

Sequence: CGGATATGCG
- switch fluorescence ratio: 1.06 ± 0.085

Sequence: CGGATCATCA
- switch fluorescence ratio: 1 ± 0.021

Sequence: CGGATCGTCG
- switch fluorescence ratio: 0.984 ± 0.038

Sequence: CGGATGAGGT
- switch fluorescence ratio: 0.987 ± 0.052

Sequence: CGGATGGAGT
- switch fluorescence ratio: 0.99128 ± 1.1e-05

Sequence: CGGATGGGAA
- switch fluorescence ratio: 0.995 ± 0.024

Sequence: CGGATGTGTA
- switch fluorescence ratio: 1.002 ± 0.01

Sequence: CGGATGTTAC
- switch fluorescence ratio: 1.171 ± 0.0093

Sequence: CGGATTAGTG
- switch fluorescence ratio: 0.964 ± 0.018

Sequence: CGGATTATTT
- switch fluorescence ratio: 0.984 ± 0.037

Sequence: CGGATTTGAC
- switch fluorescence ratio: 1.015 ± 0.0028

Sequence: CGGCAAGAGT
- switch fluorescence ratio: 1.479 ± 0.0019

Sequence: CGGCAATGTT
- switch fluorescence ratio: 1.73 ± 0.14

Sequence: CGGCAGAAAT
- switch fluorescence ratio: 0.967 ± 0.022

Sequence: CGGCAGGATG
- switch fluorescence ratio: 1.01 ± 0.024

Sequence: CGGCAGTAAT
- switch fluorescence ratio: 1.471 ± 0.003

Sequence: CGGCATCGAA
- switch fluorescence ratio: 0.985 ± 0.036

Sequence: CGGCATGTCT
- switch fluorescence ratio: 0.997 ± 0.076

Sequence: CGGCCAATAA
- switch fluorescence ratio: 3.19 ± 0.12

Sequence: CGGCGAACTC
- switch fluorescence ratio: 1.11 ± 0.033

Sequence: CGGCGAAGTT
- switch fluorescence ratio: 0.9883 ± 0.0046

Sequence: CGGCGGCACG
- switch fluorescence ratio: 0.998 ± 0.086

Sequence: CGGCGGGGGC
- switch fluorescence ratio: 0.998 ± 0.022

Sequence: CGGCGGGGGG
- switch fluorescence ratio: 1.08 ± 0.22

Sequence: CGGCGTACTA
- switch fluorescence ratio: 1.06 ± 0.014

Sequence: CGGCGTCCGT
- switch fluorescence ratio: 1.01 ± 0.037

Sequence: CGGCTACATT
- switch fluorescence ratio: 0.9995 ± 0.0034

Sequence: CGGCTAGACG
- switch fluorescence ratio: 0.9994 ± 0.0057

Sequence: CGGCTTAGAT
- switch fluorescence ratio: 0.984 ± 0.028

Sequence: CGGCTTATGT
- switch fluorescence ratio: 0.9807 ± 0.0029

Sequence: CGGCTTGCGG
- switch fluorescence ratio: 1.03 ± 0.015

Sequence: CGGCTTTTTT
- switch fluorescence ratio: 0.959 ± 0.012

Sequence: CGGGAACCTT
- switch fluorescence ratio: 1.283 ± 0.01

Sequence: CGGGAACTCG
- switch fluorescence ratio: 1.01 ± 0.04

Sequence: CGGGAACTGT
- switch fluorescence ratio: 0.964 ± 0.07

Sequence: CGGGAAGGGG
- switch fluorescence ratio: 1.02 ± 0.03

Sequence: CGGGAAGTGG
- switch fluorescence ratio: 0.996 ± 0.03

Sequence: CGGGAAGTTT
- switch fluorescence ratio: 0.999 ± 0.032

Sequence: CGGGAATTGG
- switch fluorescence ratio: 0.961 ± 0.067

Sequence: CGGGACGTTT
- switch fluorescence ratio: 1.01 ± 0.013

Sequence: CGGGAGAACT
- switch fluorescence ratio: 0.987 ± 0.026

Sequence: CGGGAGCGGA
- switch fluorescence ratio: 0.995 ± 0.018

Sequence: CGGGAGCGTC
- switch fluorescence ratio: 1.02 ± 0.01
